Test results taken from the nanobody polyreactivity screen of Harvey et al. (2022).

Test: yeast display, Sf9 membrane polyspecificity reagent, FACS + sequencing; frameworks hold sequencing errors
Procedure, shortened: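 In a synthetic yeast display library (Saccharomyces cerevisiae BJ5465), nanobody expression was induced with galactose for 36–48 hours. FACS gates were set low and high (top ~1%) using anti-HA fluorescence for expression and streptavidin fluorescence for binding of the Sf9 membrane reagent. Each polyreactivity label is drawn from the gate of origin.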

Sequence: QVQLVESGGGLVQAGGSLRLSCAASGSIFKRYAMGWYRQAPGKERELVAAITYNGGSTYYADSVKGRFTISRDNAKNTVYLQMNSLKPEDTAVYYCAAERYNGYDYWGQGTQVTVSS
- polyreactivity (PSR sort gate): high polyreactivity

Sequence: QVQLVESGGGLVQAGGSLRLSCAASGSIFKSNAMGWYRQAPGKERELVAAISNGGITNYADSVKGRFTISRDNAKNSVYLQMNSLKPEDTAVYYCATSDVREIWVDYWGQGTQVTVSS
- polyreactivity (PSR sort gate): low polyreactivity

Sequence: QVQLVESGGGLVQAGGSLRLSCAASGSIFKSNGMGWYRQAPGKERELVAAITGSGGTTYYADSVKGRFTISRDNAKNTVYLQMNSLKPEDTAVYYCAADIYWYPTYYYWGQGTQVTVSS
- polyreactivity (PSR sort gate): low polyreactivity

Sequence: QVQLVESGGGLVQAGGSLRLSCAASGSIFKVNVMGWYRQAPGKERELVAAISRSGGNTYYADSVKGRFTISRDNAKNTVYLQMNSLKPEDTAVYYCATGASYLRRYDHPHSDVDYWGQGTQVTVSS
- polyreactivity (PSR sort gate): low polyreactivity

Sequence: QVQLVESGGGLVQAGGSLRLSCAASGSIFKVYAMGWYRQAPGKERELVAAITGSGGSTYYADSVKGRFTISRDNAKNTVYLQMNSLKPEDTAVYYCNTDYYYSGYFRRFDYWGQGTQVTVSS
- polyreactivity (PSR sort gate): high polyreactivity

Sequence: QVQLVESGGGLVQAGGSLRLSCAASGSIFKWYAMGWYRQAPGKERALVATISSSGSSTYYADSVKGRLTISRDNAKNTVYLQMNSLKPEDTAVYYCATTYGWRYPAMDYWGQGTQVTVSS
- polyreactivity (PSR sort gate): high polyreactivity

Sequence: QVQLVESGGGLVQAGGSLRLSCAASGSIFKWYAMGWYRQAPGKERELVASITWSGGSTYYADSVKGRFTISRDNAKNTVYLQMNSLKPEDTAVYYCNALSWVRGDYWGQGTQVTVSS
- polyreactivity (PSR sort gate): low polyreactivity

Sequence: QVQLVESGGGLVQAGGSLRLSCAASGSIFKWYAMGWYRQAPGKERELVAVISSGGNTYYADSVKGRFTISRDNAKNTVYLQMNSLKPEDTAVYYCAARVTSHMYYWGQGTQVTVSS
- polyreactivity (PSR sort gate): high polyreactivity

Sequence: QVQLVESGGGLVQAGGSLRLSCAASGSIFKYNAMGWYRPAPGKERELVAAISWSGGSTRYADSLKGRFTISRDNATNTGYLQMNSLKPEDTAVYYCAAKHGRNYAANALYGYWGQGTQVTVSS
- polyreactivity (PSR sort gate): high polyreactivity

Sequence: QVQLVESGGGLVQAGGSLRLSCAASGSIFKYNAMGWYRQAPGKERQLVAAISSSGGYTSYADSVKGRFTISRDNAKNTVYLQMNSLKPEDTAVYYCNAPYLIYKKGRYDYWGQGTQVTVSS
- polyreactivity (PSR sort gate): high polyreactivity

Sequence: QVQLVESGGGLVQAGGSLRLSCAASGSIFKYNPMGWDRQAPGKERELVAAITYRGASTYYADSVKGRFTISRDNAKNTVYLQMNSLKPEDTAVYYCNAKVRKSRFYYWGQGTQVTVSS
- polyreactivity (PSR sort gate): high polyreactivity

Sequence: QVQLVESGGGLVQAGGSLRLSCAASGSIFKYYAMGWYRQAPGKERELVAAIDWSGGNTYADSVKGRFTISRDNAKNTVYLQMNSLKPEDTAVYYCNAPGFRRLWGFGYDYWGQGTQVTVSS
- polyreactivity (PSR sort gate): high polyreactivity

Sequence: QVQLVESGGGLVQAGGSLRLSCAASGSIFKYYAMGWYRQAPGKERELVAAISTGGTTNYADSVKGRFTISRDNAKKTVYLQMNSLKPDDTAVYYCNRDFLVRSRYKYYYWGQGTQVTVSS
- polyreactivity (PSR sort gate): low polyreactivity

Sequence: QVQLVESGGGLVQAGGSLRLSCAASGSIFKYYTIGWYRQAPGKERELVAAISWSGGRTYYADSVKGRFTISRDIAKNTVYLQMNSLKPEDTAVYYCAKYVSYSRTLYDYWGQGTKVTVSS
- polyreactivity (PSR sort gate): high polyreactivity

Sequence: QVQLVESGGGLVQAGGSLRLSCAASGSIFKYYTMGWYRQAPGKEREFVAAITRSGGSTYYADSVKGRFTISRDNAKNTVYLQMNSLKPEDTAVYYCAARTIRDQTVRFGHWGQGTQVTVSS
- polyreactivity (PSR sort gate): high polyreactivity

Sequence: QVQLVESGGGLVQAGGSLRLSCAASGSIFKYYTMGWYRQAPGKERELVAAISWRGGSTYYADSVKGRFTISRDNAKNTVYLQMNSLKPEDTAVYYCAAKSYYNYYYWGQGTQVTVSS
- polyreactivity (PSR sort gate): high polyreactivity

Sequence: QVQLVESGGGLVQAGGSLRLSCAASGSIFKYYTRGWYRQAPGKERELVAAISGSGGTTYYADSVKGRFTISRDNAKNTVYLQMNSLKPEDTAVYYCATAYYRAFRGDYWGQGTQVTVSS
- polyreactivity (PSR sort gate): high polyreactivity

Sequence: QVQLVESGGGLVQAGGSLRLSCAASGSIFLIYDMGWYRQAPGKEMELVAAISNSVGSTYADSVKGRFTISRDNAKNTVYLQINSLKPEDTAVYYCNADSGPIDGRGGYWGQGTQVTVSS
- polyreactivity (PSR sort gate): low polyreactivity

Sequence: QVQLVESGGGLVQAGGSLRLSCAASGSIFLKYAMGWYRQAPGKERELVAAISSRGGSTYYADSVKGRFTISRDNAKNTVYLQMNSLKPEDTAVYYCAAKRWPGTDGYWGQGTQVTVSS
- polyreactivity (PSR sort gate): high polyreactivity

Sequence: QVQLVESGGGLVQAGGSLRLSCAASGSIFLNYAMGWYRQAPGNERELVAGISNGGSTNYADSVKGRFTISRDNAKNTVYLQMNSLKPEDTAVYYCARPAYKSRGKRFDYLGQGTQVTVSS
- polyreactivity (PSR sort gate): low polyreactivity

Sequence: QVQLVESGGGLVQAGGSLRLSCAASGSIFLPYAMGWYRQAPGKEREFVAAIRWSTGRTFYADSVKGRFTISRDNAKNTVYLQMNSLKPEDTAVYYCAAVWPDVRGYDYWGQGTQVTVSS
- polyreactivity (PSR sort gate): high polyreactivity

Sequence: QVQLVESGGGLVQAGGSLRLSCAASGSIFLRYAMGWYRQAPGKERELVAAITSSGGSTYYADSVKGRFTISRDNAKNTLYLQMNSLKPEDTAVYYCNRYSYLFPYYWKYDYWGQGTQVTVSS
- polyreactivity (PSR sort gate): high polyreactivity

Sequence: QVQLVESGGGLVQAGGSLRLSCAASGSIFLSNAMGWYRQAPGKERELVAAISRRGASTYYADSVKGRFTISRDNAKNTVYLQMNSLKPEDTAVYYCAARSYSAYGYNYWGQGTQVTVSS
- polyreactivity (PSR sort gate): high polyreactivity

Sequence: QVQLVESGGGLVQAGGSLRLSCAASGSIFLSNAMVWYRQAPGKERDLVADIDWTGGDTYYADSVKGRFTISRDNAKNTVYLQMNSLKPEDTAVYYCAADYGSRNLLTEYGYWGQGTQVTVSS
- polyreactivity (PSR sort gate): low polyreactivity

Sequence: QVQLVESGGGLVQAGGSLRLSCAASGSIFLSNMGWYRQAPGKERELVAAISRNGGSTYYADSVKGRFTISRDNAKYSVYLQMNSLKPEDTAVYYCAVQRYWGQGTQVTVSS
- polyreactivity (PSR sort gate): high polyreactivity

Sequence: QVQLVESGGGLVQAGGSLRLSCAASGSIFLTYAMGWYRQAPGKERELVAAITDSDGSTSYADSVKGRFTISRDNAKNTVYLQMNSLKPEDTAVYYCAKDFPGRRPPKDPSAFYYWGQGTQVTVSS
- polyreactivity (PSR sort gate): low polyreactivity

Sequence: QVQLVESGGGLVQAGGSLRLSCAASGSIFLVYAMGWYRQAPGKERELVAVITKSGGSTYYADSVKGRFTISRDNAKNTVYLQMNSLKPEDTAVYYCAARRRGARHDYWGQGTQVTVSS
- polyreactivity (PSR sort gate): high polyreactivity

Sequence: QVQLVESGGGLVQAGGSLRLSCAASGSIFLWNAMGWYRQAPGKEREFVASITSRGGSTYYADSVKGRFTISRDNAKNTVYLQMNSLKPEDTAVYYCAAVRSKYWYYQGGYSSYGYWGQGTQVTVSS
- polyreactivity (PSR sort gate): high polyreactivity

Sequence: QVQLVESGGGLVQAGGSLRLSCAASGSIFLWNAMGWYRQAPGKERELVAAISSGTSTNYADSVKGRFTISRDNANNTVYLQMNSLKPEDTAVYYCAARGRKNQRRYGYWGQGTQVTVSS
- polyreactivity (PSR sort gate): low polyreactivity

Sequence: QVQLVESGGGLVQAGGSLRLSCAASGSIFLYNAMGWYRQAPGKERELVAAISKSGGSTYYADSVKGRFTISRDNAKNTVYLQMNSLIPEDTAVYYCAAGYCRRIRYGSEYDYWGQGTQVTVSS
- polyreactivity (PSR sort gate): low polyreactivity

Sequence: QVQLVESGGGLVQAGGSLRLSCAASGSIFLYNAMGWYRQAPGKERELVATITYIGGRTYYADSVKGRFTISRDNAKNTVYLQMNSLKPEDTAVYYCAAEYYVISSPSFYEYDYWGQGTQVTVSS
- polyreactivity (PSR sort gate): low polyreactivity

Sequence: QVQLVESGGGLVQAGGSLRLSCAASGSIFNANAMGWYRQAPGKERELVARITRGGRTNYADSVKGRFTISLDNAKNSVYLQMNSLKPEDTAVYYCAAVYYVGFPHKYDYWGQGTQVTVSS
- polyreactivity (PSR sort gate): low polyreactivity

Sequence: QVQLVESGGGLVQAGGSLRLSCAASGSIFNAYAMGWYRQAPGKERELVAAISKRTSYADSVKGRFTISRDNAKNTVYLQMNSLKPEDTAVYYCANEVDEPDGYEYDYWGQGTQVTVSS
- polyreactivity (PSR sort gate): low polyreactivity

Sequence: QVQLVESGGGLVQAGGSLRLSCAASGSIFNGYDMGWYRQAPGKERELVAAISLSGDSTYYADSVKGRFTISRDNAKNTVYLQMNSLKPEDTAVYYCAAADYFRSYWGQGTQVTVSS
- polyreactivity (PSR sort gate): low polyreactivity

Sequence: QVQLVESGGGLVQAGGSLRLSCAASGSIFNGYVMGWYRQAPGKERELVASINRGGTTNYADSVKGRFTISRDNAKNTVYFQMNSLKPEDTAVYYCAVDDDANSLGGYYVLFDYWGQGTQVTVSS
- polyreactivity (PSR sort gate): low polyreactivity

Sequence: QVQLVESGGGLVQAGGSLRLSCAASGSIFNKYAMGWYRQAPGKEREFVAAITQGGGRTYYADSVKGRFTISRDNAKNTVYLQMNSLKPEDTAVYYCNAAVYSRARGSYRRRYDYWGQGTQVTVSS
- polyreactivity (PSR sort gate): high polyreactivity

Sequence: QVQLVESGGGLVQAGGSLRLSCAASGSIFNKYAMGWYRQAPGKERELVAAISVSGTRTYYADTVKGRFTISRDNAKNTVYLQMNSLKPEDTAVYYCATKFFRTAYESWGQGTQVTVSS
- polyreactivity (PSR sort gate): high polyreactivity

Sequence: QVQLVESGGGLVQAGGSLRLSCAASGSIFNPYTMGWYRQAPGKERELVAAISASGGSTYYADSVKGRFTISRDNAKYTVYLQMNCLKPEDTAVYYCNVYRITRHSYNFGFDYWGQGTQVTVSS
- polyreactivity (PSR sort gate): low polyreactivity

Sequence: QVQLVESGGGLVQAGGSLRLSCAASGSIFNRNVMGWYRQAPGKERELVAAITWSGASTYYADSVKGRFTISRDNAKNTVYLQMNSLKPEDTAVYYCAARGPSRRRDGSDYWGQGTQVTVSS
- polyreactivity (PSR sort gate): high polyreactivity

Sequence: QVQLVESGGGLVQAGGSLRLSCAASGSIFNRYAMGWSRQAPGKARELVPAISRRGAGTYYADSVKGRFTISRDNAKHTVYLQMNSLKPDDTAVYYCAAAGYFPTAGSRRAYYYCGQGTQVTVSS
- polyreactivity (PSR sort gate): high polyreactivity

Sequence: QVQLVESGGGLVQAGGSLRLSCAASGSIFNRYAMGWYRQAPGKEREFVARISKRGGGTYYADSVKGRFTISRDNAKNTVYLQMNSLKPEDTAGYYCNAGVPSAMDYWGQGTQVTVSS
- polyreactivity (PSR sort gate): high polyreactivity

Sequence: QVQLVESGGGLVQAGGSLRLSCAASGSIFNRYTMGWYRPAHGKQRELVAAISRGGITYYADSVKGRFTISRDNAMNTVYLQMNSLKPEDSAVYYCAADGFTRWGRYDYWGQGTQVTVSS
- polyreactivity (PSR sort gate): high polyreactivity

Sequence: QVQLVESGGGLVQAGGSLRLSCAASGSIFNRYTMGWYRQAPGKEREFVAAIRNSGSRTYYADSVKRRFTISRDNAKNTVYLQMNSLKPEDTAVYYCAADGPLNSSESYYWGQGTQVTVSS
- polyreactivity (PSR sort gate): low polyreactivity
